According to US20140323404A1 (GUANGDONG MEDICAL COLLEGE, published 2014):

B1: NAPTin-2 (peptide)
chain: NPSCGENERHDECSRKECDPKCKYDGTEEKDDEKPVVCLTRVCYGDCICRDGFLRNKNGACVKAEDCELDN
B2: NAPTin-3 (peptide)
chain: NPSCGENERHDECSRKECDPKCKYDGTEEKDDEKPVVCLTRVCYGDCICRDGFLRNKNGACVKAEDCELDNM
B3: NAPTin-4 (peptide)
chain: NPSCGENERHDECSRKECDPKCKYDGTEEKDDEKPVVCLTRVCYGDCICRDGFLRNKNGACVKAEDCELDNME
B4: NAPTin-5 (peptide)
chain: NPSCGENERHDECSRKECDPKCKYDGTEEKDDEKPVVCLTRVCYGDCICRDGFLRNKNGACVKAEDCEL
B5: NAPTin-6 (peptide)
chain: NPSCGENERHDECSRKECDPKCKYDGTEEKDDEKPVVCLTRVCYGDCICRDGFLRNKNGACVKAEDCE
B6: NAPTin-7 (peptide)
chain: NPSCGENERHDECSRKECDPKCKYDGTEEKDDEKPVVCLTRVCYGDCICRDGFLRNKNGACVKAEDC
B7: NAPTin-8 (peptide)
chain: NPSCGENERHDECSRKECDPKCKYDGTEEKDDEKPVVCLTRVCYGDCICRDGFLRNKNGACVKAEDCELDNMEF
B8: NAPTin-9 (peptide)
chain: NPSCGENERHDECSRKECDPKCKYDGTEEKDDEKPVVCLTRVCYGDCICRDGFLRNKNGACVKAEDCELDNMEFI

Target: Human coagulation factor XIa (human, UniProt P03951 19-625)
Experiment: cell-based or functional assay

Row | Binder | inhibition of fXIa activity, chromogenic assay, polypeptide at 100 nM [%]
1 | B1 | > 90
2 | B2 | > 90
3 | B3 | > 90
4 | B4 | > 90
5 | B5 | > 90
6 | B6 | > 90
7 | B7 | > 90
8 | B8 | > 90
